“Also recorded” adds a separate entry of the source.
B1: TAT-GIV-CT-WT: Recombinant cell-permeable fusion of TAT-PTD, His and HA tags, linker and human GIV C-terminus (aa 1660-1870), wild type; SEQ ID NO: 2 (protein)
chain: MRGSHHHHHHGMASMTGGQQMGRDLYDDDDKDRWGSKLGYGRKKRRQRRRGGSTMSGYPYDVPDYAGSMGGSGHSGETLESRHHKIKTGSPGSEVVTLQQFLEESNKLTSVQIKSSSQENLLDEVMKSLSVSSDFLGKDKPVSCGLARSVSGKTPGDFYDRRTTKPEFLRPGPRKTEDTYFISSAGKPTPGTQGKIKLVKESSLSRQSKDSNPYATLPRASSVISTAEGTTRRTSIHDFLTKDSRLPISVDSPPAAADSNTTAASNVDKVQESRNSKSRSREQQSS
B2: TAT-GIV-CT-FA: GEF-deficient F1685A mutant of the TAT-GIV-CT peptide, dominant-negative; SEQ ID NO: 3 (protein)
chain: MRGSHHHHHHGMASMTGGQQMGRDLYDDDDKDRWGSKLGYGRKKRRQRRRGGSTMSGYPYDVPDYAGSMGGSGHSGETLESRHHKIKTGSPGSEVVTLQQALEESNKLTSVQIKSSSQENLLDEVMKSLSVSSDFLGKDKPVSCGLARSVSGKTPGDFYDRRTTKPEFLRPGPRKTEDTYFISSAGKPTPGTQGKIKLVKESSLSRQSKDSNPYATLPRASSVISTAEGTTRRTSIHDFLTKDSRLPISVDSPPAAADSNTTAASNVDKVQESRNSKSRSREQQSS

What was measured:
Format in all cases: cell-based
[1] = molecular target: T1, Gαi1-YFP / CFP-Gβ1 / Gγ2 heterotrimer (Gi) (Homo sapiens, UniProt P63096); test: FRET assay of Gi heterotrimer dissociation after EGF in GIV-depleted HeLa cells
T1 construct: expressed in transfected cells; host or cells: HeLa cells stably depleted of GIV by shRNA
Method: HeLa cells stably depleted of GIV by shRNA were grown to 60-70% confluence in sterile 35 mm MatTek glass bottom dishes. One microgram each of various donor and acceptor plasmid constructs were transfected with Trans-IT-LT1 transfection reagent (Minis Bio LLC) using manufacturer's protocol. Cells were starved overnight in serum-free DMEM (Gibco), transduced the following morning with TAT proteins for 30 min, washed with PBS and subsequently the media was switched to DMEM without phenol red before live cell imaging. EGF stimulation was carried out ˜4 h after TAT transduction. Fluorescence microscopy studies were conducted on single cells in mesoscopic regime to avoid inhomogeneities from samples as previously rationalized by Midde et al. (55-57). Olympus FV1000 inverted confocal laser scanning microscope was used for live cell FRET imaging (UCSD-Neuroscience core facility). The microscope is stabilized on a vibration proof platform, caged in temperature controlled (37° C.) and CO2 (5%) supplemented chamber. A 60×1.49 N. An oil immersed objective designed to minimize chromatic aberration and enhance resolution for 405-605 nm imaging was used. Olympus Fluoview inbuilt software was used for data acquisition through the method of sensitized emission. A 405 nm laser diode was used to excite ECFP and 515 nm Argon-ion laser was used to excite EYFP. The bandwidth of spectral emission was adjusted through grating to minimize bleed through. Enhanced CFP emission was collected from 425 to 500 nm and EYFP emission was collected through 535-600 nm and passed through a […] confocal pinhole before being sent to photomultiplier tube to reject out of plane focused light. Every field of view is imaged sequentially through ECFPex/ECFPem, ECFPex/EYFPem and EYFPex/EYFPem (3 excitation and emission combinations) and saved as donor, transfer and acceptor image files through an inbuilt wizard.
To obtain the FRET images and efficiency of energy transfer values a RiFRET plugin in Image J software was used (58). FRET images were obtained by pixel-by-pixel ratiometric intensity method and efficiency of transfer was calculated by the ratio of intensity in transfer channel to the quenched (corrected) intensity in the donor channel. Cells transfected with CFP and YFP alone were imaged under all three previously mentioned excitation and emission combinations and are used to correct for cross-talk. Furthermore, untransfected cells and a field of view without cells were imaged to correct for background, autofluorescence and light scattering. Cells chosen for imaging were ensured for identical expression of donor and acceptor probes by the photons collected in individual channels.

MDA MB231 cells = test: Transwell tumor cell invasion assay through basement membrane extract; conditions: compared to TAT-control peptides; 50 nM EGF
Method: Briefly, after a serum starvation overnight, MDA MB231 cells were first transduced with TAT peptides for 30 min as above. Transduced cells were trypsinized, counted, and placed in a Corning transwell permeable support coated with Cultrex Basement Membrane Extract (7×10^4 cells per well). Media without FBS but containing EGF ligand (50 nM) was placed within the bottom chamber of each well to trigger directional 3D invasion. As done in the 2D migration assays, transduction with TAT peptides was repeated one more time ˜10-12 h into the assay (total of two times). At 22-24 h, a Q-tip was used to meticulously remove all cells from the surface of the permeable membrane facing the upper chamber. […] To quantify cell invasion (expressed as number of invasive cells/high power field) ˜10-12 random fields per membrane insert per condition were analyzed for number of crystal violet stained cells. […]
Invasion assays were performed using Corning® Transwell plates according to the manufacturer's protocol. Transduced cells were trypsinized, counted and placed in a Corning transwell permeable support coated with Cultrex® Basement Membrane Extract (7×10^4 cells/well). […] Cell invasion (expressed as number of invasive cells/high power field) was quantified by analyzing ˜10-12 random fields/membrane insert/condition for number of crystal violet stained cells.

HeLa cells = test: Scratch-wound 2D cell migration assay; conditions: compared to mock treatment, 12 h and 24 h
Method: Scratch-wound assays were done as described (49). Briefly, monolayer cultures (100% confluent) of HeLa cells were incubated first in a 0.2% serum media over night. The following morning, monolayers of HeLa cells were first transduced with TAT peptides for 30 min, then washed three times with PBS and placed again in a 0.2% serum media for 1 h 30 min before scratch-wounding. The wounds were created using a 20 μL pipette tip. Transduction with TAT peptides was repeated at 12 h into the wound healing assay (a total of two times). Healing wounds were monitored by phase-contrast microscopy over the next 24 h and serially photographed using a Canon digital SLR camera. To quantify cell migration (expressed as percent of wound closure) the acquired images were analyzed using Image J software to measure open wound area. Results were expressed as % closure by calculating the difference between the wound area at 0 h, 12 h and that at 24 h divided by the area at 0 h×100. Invasion assays were performed using Corning Transwell plates according to the manufacturer's protocol.
Scratch-wound assays were done as described previously (13). […] Healing wounds were monitored by phase-contrast microscopy over the next 24 h and migration index was quantified (expressed as % wound closure) by measuring the wounded area using Image J software.

T1 sequence (P63096 2-354 limits assumed, one chain of several): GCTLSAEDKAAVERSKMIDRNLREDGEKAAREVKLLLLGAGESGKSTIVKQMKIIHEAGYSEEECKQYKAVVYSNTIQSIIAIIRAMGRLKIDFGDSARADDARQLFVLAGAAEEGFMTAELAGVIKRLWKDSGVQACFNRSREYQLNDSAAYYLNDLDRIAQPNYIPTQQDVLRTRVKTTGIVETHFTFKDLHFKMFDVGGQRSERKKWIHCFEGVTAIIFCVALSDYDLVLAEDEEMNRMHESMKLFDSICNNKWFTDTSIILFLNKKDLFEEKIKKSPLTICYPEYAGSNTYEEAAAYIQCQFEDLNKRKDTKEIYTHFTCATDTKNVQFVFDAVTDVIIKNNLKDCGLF

Molecule	loss of FRET / dissociation of trimeric Gi in response to EGF ([1]; 50 nM EGF, 5 min)	FRET after EGF stimulation ([1]; 50 nM EGF, 5 min, p=0.0011)	FRET before EGF stimulation ([1]; plasma membrane ROIs, t0)	invasion through basement membrane matrix in response to EGF gradient (MDA MB231 cells)	2D-migration and wound closure (HeLa cells)	loss of FRET / dissociation of trimeric Gi in response to EGF ([1]; 50 nM EGF, 5 min, listed as FA)	2D-migration and wound closure (HeLa cells; listed as FA)
B1	significant loss of FRET; also recorded: sufficient to trigger dissociation of trimeric Gi	0.15±0.07	0.22±0.04	significantly enhanced	enhances	–	–
B2	No similar loss of FRET	–	–	virtually abolished	–	not	delayed wound closure and not

— patent publication US10653749B2, “Targeting GIV-GEF-GI signaling for treating diverse diseases” (The Regents of the University of California, priority 2015, dated 2020)
